By stoichiometry N is commonly meant a count of units in the complex or per binding partner. A word on the Km: it is the substrate concentration at which the rate is half of its maximum. The kcat is the number of substrate molecules converted per active site and unit of time at saturation.

Series [1] deals with the molecule itself. The series can be described thus: SEC-MALS; 4 mg/ml loaded on Superdex 200 10/300 Increase; 20 mM HEPES pH 7.5, 150 mM KCl, 5 mM MgCl2, 1 mM DTT; 0.7 ml/min; Ts^FL also in different nucleotide states. For orientation: Size exclusion chromatography separates by hydrodynamic size, large species first.
Substrate in series [2]: Nc1ncnc2c1ncn2[C@@H]1O[C@H](COP(=O)(O)OP(=O)(O)OP(=O)(O)O)[C@@H](O)[C@H]1O
The series can be described thus: Malachite green phosphate release ATPase assay. It counts as biochemical, Thermus scotoductus. Conditions: 65°C, 20 mM Tris-HCl pH 8, 50 mM NaCl, 5 mM MgCl2, no DNA (basal).

B1: full-length Thermus scotoductus OLD (enzyme, UniProt E8PLM2 1-528, looked up)
chain: MLKRLQVKNFRCLEDIDLPLGPLTAIVGPNGAGKTTILRAIDLVLGDVWPSLRSFRIPQDFINFDTTRAIEITVHFDPPYTQGSFNITAFRLTCKGEDADFHVDLEPLDEGGNVPRYPSGNPLRVGTDMRNHARVLFLDHRRNLAQHLPSIRGSILGRLLQPVRREFKLQDNFKQVYEQAMDLLRTEQVKQIEKTIAETAKQMLGFLGKDAMKSMEIGFGFADPANPFNSLRLQYRESDLTLPGDELGLGIQSAIVVGIFEAFRQLGEKIGTVIIEEPEMYLHPQAQRYFYRLLCEMADKDQCQIIYSTHSPIFADVNRFEALRLVRKDRDDRVVVSYVREEDKSALDNVRNRFKLGGRFDTARNEVLFAKRALLVEGYGDRVAALQLFNQLEVDPDAECIAVVDCGGKAGIELIVGVCKALDIPFVVVHDEDVWPIDERADEETRRKQEQENKAEQEKNQRIQACAGAERVFVVQPSLEAALGIGRNASDKPYRIAEILKTVDVGQPPDALRPFVEAIRQVTRPMEE
notes: Thermus scotoductus OLD (Class 1 OLD family nuclease), UniProt E8PLM2, full-length, residues 1-525; codon-optimised synthetic gene in pET21b; Dimer by SEC-MALS and by crystal symmetry; The crystal model holds residues 1-142, 149-237 and 245-525; also called Ts^FL; Ts OLD; source: E. coli BL21(DE3), purified (65°C heat step, nickel column, HiTrap Q, SEC)
For the protein B1, the “stoichiometry N” value in series [1] worked out at 2.

B2: Thermus scotoductus OLD N-terminal region (residues 1-369) (domain or fragment, UniProt E8PLM2 1-369, looked up)
chain: MLKRLQVKNFRCLEDIDLPLGPLTAIVGPNGAGKTTILRAIDLVLGDVWPSLRSFRIPQDFINFDTTRAIEITVHFDPPYTQGSFNITAFRLTCKGEDADFHVDLEPLDEGGNVPRYPSGNPLRVGTDMRNHARVLFLDHRRNLAQHLPSIRGSILGRLLQPVRREFKLQDNFKQVYEQAMDLLRTEQVKQIEKTIAETAKQMLGFLGKDAMKSMEIGFGFADPANPFNSLRLQYRESDLTLPGDELGLGIQSAIVVGIFEAFRQLGEKIGTVIIEEPEMYLHPQAQRYFYRLLCEMADKDQCQIIYSTHSPIFADVNRFEALRLVRKDRDDRVVVSYVREEDKSALDNVRNRFKLGGRFDTARNEVLF
notes: Thermus scotoductus OLD, UniProt E8PLM2, N-terminal region encompassing the ATPase domain, residues 1-369; in pET21b; also called Ts^NTR; NTR; source: E. coli BL21(DE3), purified (65°C heat step, nickel column, HiTrap Q, SEC)
In the case of B2, the “stoichiometry N” value in series [1] came out at 2.

B3: Ts OLD (Ts^FL) (Thermus scotoductus SA-01) (protein)
chain: MLKRLQVKNFRCLEDIDLPLGPLTAIVGPNGAGKTTILRAIDLVLGDVWPSLRSFRIPQDFINFDTTRAIEITVHFDPPYTQGSFNITAFRLTCKGEDADFHVDLEPLDEGGNVPRYPSGNPLRVGTDMRNHARVLFLDHRRNLAQHLPSIRGSILGRLLQPVRREFKLQDNFKQVYEQAMDLLRTEQVKQIEKTIAETAKQMLGFLGKDAMKSMEIGFGFADPANPFNSLRLQYRESDLTLPGDELGLGIQSAIVVGIFEAFRQLGEKIGTVIIEEPEMYLHPQAQRYFYRLLCEMADKDQCQIIYSTHSPIFADVNRFEALRLVRKDRDDRVVVSYVREEDKSALDNVRNRFKLGGRFDTARNEVLFAKRALLVEGYGDRVAALQLFNQLEVDPDAECIAVVDCGGKAGIELIVGVCKALDIPFVVVHDEDVWPIDERADEETRRKQEQENKAEQEKNQRIQACAGAERVFVVQPSLEAALGIGRNASDKPYRIAEILKTVDVGQPPDALRPFVEAIRQVTRP
notes: full-length, residues 1-525, C-terminal 6xHis tag (pET21b), codon-optimized, expressed in E. coli BL21(DE3); homodimer
Consider B3, for which, in series [2], the Km worked out at 180 ± 26 µM and the kcat was 0.00733 ± 0.005 s⁻¹.

The values are drawn from paper PMC7049728, “The full-length structure of Thermus scotoductus OLD defines the ATP hydrolysis properties and catalytic mechanism of Class 1 OLD family nucleases” (Nucleic Acids Research, 2020).
